Source: patent US6770740B1, “Crosslinked DNA condesate compositions and gene delivery methods” (The Regents of the University of Michigan, priority 1999, dated 2004)
Bridges are numbered along the chain shown (N, C = ends). Where no end group is shown, it is not given here.

How the values were obtained:
[1] = QELS particle size and zeta potential of cross-linking peptide DNA condensates, Example 5; assay type: physicochemical
Experimental: The particle size of each peptide DNA condensate was determined by quasielastic light scattering (QELS) at a scatter angle of both 15° and 90° on a Brookhaven ZetaPlus™ particle sizer. Condensates were prepared at a DNA concentration of 50 μg/ml in 400 μl HBM at a stoichiometry of 0.4 nmol of peptide per μg of DNA corresponding to a charge ratio of approximately 2:1 for each. The mean diameter and population distribution were computed from the diffusion coefficient using a unimodal cummulant analysis supplied by the manufacturer.
The particle size and zeta peptide IV DNA condensates were determined by titrating 7.5 to 37.5 nmol of peptide with 75 μg of DNA in 1.5 ml of HBM to produce 50 μg/ml DNA condensates with charge ratio of 0.5-2.5. The zeta potential was averaged from 10 determines.

HepG2 cells [2] = test: Luciferase reporter gene expression in HepG2 cells, Example 5; assay type: cell-based
Experimental: HepG2 cells (1.5×10^5) were plated on 6×35 mm wells and grown to 40-70% confluency in MEM supplemented with 10% FBS, penicillin and streptomycin (10,000 U/ml), sodium pyruvate (100 mM), and L-glutamine (200 mM). Transfections were performed in MEM (2 ml per 35 mm well) with 2% FBS and 80 μM chloroquine. Peptide DNA condensates (10 μg of DNA in 0.2 ml HBM) were added dropwise to triplicate wells. After a 5 h incubation at 37° C., the media was replaced with MEM supplemented with 10% FBS. After 24 h, cells were washed twice with ice-cold phosphate buffered saline (calcium and magnesium free) and then treated with 0.5 ml of ice-cold lysis buffer (25 mM Tris chloride pH 7.8, 1 mM EDTA, 8 mM magnesium chloride, 1% Triton X-100, 1 mM DTT) for 10 min. The cell lysate was scraped, transferred to 1.5 ml microcentrifuge tubes, and centrifuged for 7 min at 13,000 g at 4° C. to pellet debris.
Lysis buffer (300 μl), sodium-ATP (4 μl of a 180 mM solution, pH 7, 4° C.) and cell lysate (100 μl, 4° C.) were combined in a test tube, briefly mixed and immediately placed in the luminometer. Luciferase relative light units (RLU) were recorded on a Lumat™ LB 9501 (Berthold systems, Germany) with 10 sec integration after automatic injection of 100 μl of 0.5 mM D-luciferin (prepared fresh in lysis buffer without DTT). The RLU were converted in fmol using a standard curve generated by adding a known amount of luciferase (0.01 to 100 fmols with specific activity of 2.5 nU/fmol) to 35 mm wells containing 40-70% confluent HepG2 cells. The cells were processed as described above resulting in a standard curve with an average slope of 7.8×10^6 RLU per fmol of enzyme. Protein concentrations were measured by Bradford assay using bovine serum albumin as a standard (Bradford, 1976). The amount of luciferase recovered in each sample was normalized to milligrams of protein and reported as the mean and standard deviation obtained from triplicate transfections.
LipofectAce™ (Gibco BRL, 1:2.5 w/w dimethyl diotadecylammonium bromide and dioleoyl phosphatidylethanolamine) was used to mediate gene transfection according to the manufacturer's instructions. The ratio of DNA to LepofectAce™ was optimized for HepG2 cells. An optimal DNA/LipofectAce™ ratio was achieved by dissolving 10 μg of DNA in 100 μl serum free media (SFM) followed by adding 60 μl of LipofectAce™ prepared in 140 μl of SFM. The LipfectAce™ DNA complex was then diluted with 1.7 ml of SFM and used to transfect HepG2 cells for 5 h followed by replacing the transfecting media with media supplemented with 10% FBS. The cells were incubated for a total of 24 h, harvested and analyzed for luciferase as described above.

HepG2 cells [3] = test: Transient SEAP gene expression over 10 days; assay type: cell-based; conditions: with chloroquine
Experimental: HepG2 cells (3×10^5) were plated on 6×35 mm wells and grown for 48 h to 40% confluence in MEM supplemented with 10% fetal calf serum (FCS). Crosslinked DNA condensates (10 μg of DNA in 200 μL) were transfected in triplicate by drop wise addition to cells in 2% FCS either with or without 80 μM chloroquine followed by 5 h incubation, after which the media was replaced with 2 mL of MEM containing 10% fetal calf serum and allowed to incubate for an additional 19 h. Wells were sampled for 10 days at 24 h intervals by removing and freezing (−20° C.) the media and replacing it with 2 mL of fresh 10% FCS MEM.
The amount of SEAP in each well was determined using a chemiluminescent kit. Media (50 μL) was combined with 50 μl of dilution buffer followed by incubation at 65° C. for 30 min to denature endogenous alkaline phosphatase. […] After 30 min, the luminescence was measured with a 10 s integration on a Berthold Lumat™ LB 9501 luminometer. Light units were converted to μg/ml of SEAP using a standard curve constructed by adding known quantities of SEAP to cell homogenate. Background alkaline phosphatase production was determined from a 10 day null control that was subtracted from each data set.

plasmid DNA = test: Fluorescent dye (thiazole orange) displacement assay of peptide binding to DNA, Example 1; conditions: corresponding to a charge ratio of 1.8:1
Experimental: Peptide DNA condensates were formed by adding 75 μg of DNA (pCMVL in 750 μl of 5 mM Hepes pH 7.4) to varying amounts of peptide (7.5 to 90 nmol in 750 μl of Hepes) while vortexing, followed by equilibration at RT for 1 h. Peptide binding to DNA was monitored by a fluorescent dye displacement assay (Wadhwa et al. 1997). A 1 μg aliquot of the peptide DNA condensate was diluted to 1 ml in Hepes containing 0.1 μM thiazole orange. The fluorescence of the intercalated dye was measured on an LS50B fluorimeter (Perkin Elmer, UK) in a microcuvette by exciting at 500 nm while monitoring emission at 530 nm.

[4] = QELS particle size and zeta potential of PEG-peptide DNA condensates and co-condensates, Example 1; assay type: physicochemical
Experimental: The particle size of peptide DNA condensates were analyzed at a DNA concentration of 50 μg/ml in Hepes by quasielastic light scattering (QELS). The particle surface change was determined by zeta potential analysis using a Brookhaven ZetaPlus™ (Brookhaven Instruments).
DNA co-condensates were prepared by add-mixing AlkCWK18 and PEG-VS-CWK18 in ratios ranging from 0 to 100 mol %, and condensing DNA at a charge ratio of 2.3:1 as described above. To establish the mol ratio of peptides bound to DNA, condensates were dialyzed in a fixed volume (0.5 ml) dialyzer for 75 h against water using a 100,000 MWCO membrane. Peptide DNA condensates in the retentate (0.5 ml) were dissociated by adding 50 μl of 5 M sodium chloride in 0.1% TFA. AlkCWK18 and PEG-VS-CWK18 were quantified by injecting 1 nmol of peptide (100 μl) onto analytical RP-HPLC eluted with 0.1% TFA and a gradient of acetonitrile (5 to 65% over 30 min) while detecting tryptophan by fluorescence (λex 280 nm, λem 350 nm). The peak integration areas were used to quantify AlkCWK18 and PEG-VS-CWK18 with reference to standard curves developed for each peptide.

HepG2 cells [5] = test: In vitro luciferase gene expression, Example 1; assay type: cell-based; conditions: HepG2, 24 h post-transfection, 10 μg DNA, 80 μM chloroquine
Experimental: HepG2 cells were plated at 1.5×10^5 cells per 35 mm well and grown to 40-70% confluence in MEM supplemented with 10% fetal calf serum (FCS). Peptide DNA condensates (10 μg of DNA) were added dropwise to triplicate sets of cells in 2% FCS containing 80 μM chloroquine. After 5 h incubation at 37° C., the media was replaced with MEM supplemented with 10% FCS, and luciferase expression was determined at 24 h. Cells were washed twice with ice-cold phosphate buffered saline (calcium and magnesium free) and then treated with 0.5 ml of ice-cold lysis buffer (25 mM Tris hydrochloride pH 7.8, 1 mM EDTA, 8 mM magnesium chloride, 1% Triton X-100, 1 mM DTT) for 10 min. The cell lysate was scraped, transferred to 1.5 ml micro centrifuge tubes, and centrifuged for 7 min at 13,000 g at 4° C. to pellet debris.
Lysis buffer (300 μl), sodium-ATP (4 μl of a 180 mM solution, pH 7, 4° C.) and cell lysate (100 μl, 4° C.) were combined in a test tube, briefly mixed and immediately placed in the luminometer. Luciferase relative light units (RLU) were recorded on a Lumat™ LB 9501 (Berthold Systems, Germany) with 10 sec integration after automatic injection of 100 μl of 0.5 mM D-luciferin (prepared fresh in lysis buffer without DTT). […]

[6] = Solubility of peptide DNA condensates: particle size as a function of DNA concentration; assay type: physicochemical; conditions: at 2 mg/ml DNA
HepG2 cells [7] = test: Cell binding of 125I-DNA condensates, Example 1; assay type: cell-based; conditions: 5 h transfection, 10 μg 125I-DNA condensates
Experimental: Iodinated plasmid DNA was prepared with specific activity of 300 nCi per μg of DNA as described previously (Teribesi et al., 1998). Prior to forming DNA condensates, the specific activity of the ^125I DNA was adjusted to 4.5 nCi per μg of DNA by combining with unlabeled plasmid. DNA condensates were prepared using AlkCWK18, PEG-SS-CWK18 or PEG-VS-CWK18 as described above. Peptide ^125I-DNA condensates (10 μg) were used to transfer HepG2 cells for 5 h according to the procedure described above. The radioactive media was removed, cells were washed with phosphate buffered saline, harvested with lysis buffer, and the cell-associated radioactivity was quantified by gamma counting.

Substance | Particle Size Mean Diameter, Oxidized, 15° ([1]; HBM after 2 h incubation, 50 μg/ml DNA, 0.4 nmol peptide per μg DNA, scattering angle 15°) | Particle Size Mean Diameter, Oxidized, 90° ([1]; HBM after 2 h incubation, 50 μg/ml DNA, 0.4 nmol peptide per μg DNA, scattering angle 90°) | Particle Size Mean Diameter, Saline ([1]; HBM with added saline (0.15 M) after 15 min) | Particle Size Mean Diameter, Reduced ([1]; following addition of TCEP (1 mM)) | inferiority to polylysine1007 as a DNA carrier (gene expression) (HepG2 cells [2]) | more gene product relative to CWK18 DNA condensates (HepG2 cells [3]) | slope of the day 7-10 cumulative SEAP expression (HepG2 cells [3]; HMW polylysine panel (FIG. 29B)) | peptide:DNA stoichiometry at the asymptote of the dye displacement titration curve (relative DNA binding affinity) (plasmid DNA) | zeta potential of DNA condensates ([4]; charge ratio 1.8:1) | mean diameter of DNA condensates ([4]; charge ratio of 1.8:1 or higher, 50 μg/ml DNA in Hepes) | reduction of spontaneous gene transfer (luciferase expression) relative to AlkCWK18 DNA condensates (HepG2 cells [5]) | mean diameter of DNA condensates [6] | cell associated 125I-DNA, percent of dose (HepG2 cells [7])
Lys18-Trp-Cys-S-S-Cys-Trp-Lys18 (KKKKKKKKKKKKKKKKKKWCCWKKKKKKKKKKKKKKKKKK; disulfide 20-21; also: disulfide-linked dimer of two CWK18 chains, no peptide bond between positions 20 and 21) [DiCWK18] | 74 nm | 68 nm | 171 nm | 153 nm | 5 fold | approximately 10% | 32.7 ng/mL | – | – | – | – | – | –
PEG-SS-CWK18: reducible PEG-peptide from PEG-orthopyridyl-disulfide (5 kDa) and the sulfhydryl of CWK18 (CWKKKKKKKKKKKKKKKKKK; not fully specified (residue 1)) | – | – | – | – | – | – | – | 0.3 nmol per μg of DNA | +10 mV | 90 nm | five-fold | 88 nm | 6.8%
